This is an account of results in paper doi:10.64898/2025.12.11.693820, “DNA binding and lesion recognition by the bacterial interstrand DNA crosslink glycosylase AlkX”.

The target in this data set is AbaAlkX Y300F (Acinetobacter baumannii, UniProt A0A0D5YK62 1-385, Y300F;V301L). The experiment in a line: EMSA; 10 nM DNA; binding unaffected relative to WT. The settings on record: protein: recombinant; tags: His6-SUMO tag cleaved (3C); label: Cy5 on strand 1; FAM on strand 2 (both printed at 5' end); blunt; covalently crosslinked strands.

B1: 2F-NM8-ICL DNA (dsDNA)
DNA 1: TTTATTTTTATTTGACTTTTATTTTT
DNA 2: AAAAATAAAAGTCAAATAAAAATAAA
As to B1, the binding result is “binds”.
